Source: the supplement of paper PMC9170038

Tested on: MS2 coat protein
Assay: apparent KD of MS2 coat protein; designed switch direction (-1 OFF switch, 1 ON switch): -1; higher = weaker reporter binding
In short: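 Transcription of designed RNA switches on Illumina chips was done by stalled E. coli RNA polymerase. SNAP-549-labelled MS2 coat protein was then titrated in doubling steps from 0.7 or 1.5 nM to 3 µM, with steps of 0.8–1.5 h at the lowest and 10–20 min at the highest concentration. The per-design median over clusters of curve-fitted normalised fluorescence is reported as apparent KD.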

[1] = input ligand: microRNA oligo, concentration not stated
[2] = Eterna round: R95, input ligand: microRNA oligo, concentration not stated
[3] = Eterna round: R95, input ligand: FMN 200 uM
[4] = Eterna round: R95, input ligand: none

Sequence | apparent KD of MS2 coat protein (input ligand: FMN 200 uM) [µM] | apparent KD of MS2 coat protein (input ligand: none) [µM] | apparent KD of MS2 coat protein [2] [µM] | other results
ACACUGCGAGGAUAUACAUGAGGAUCACCCAUGUUAAGGAAGUCAAGGUUAAUUUAAGGUAGAAGGCGCGUAUU [JR_Ex3_Sub012] (Eterna round: R97, puzzle: Exclusion 3) | 0.0546 | 0.0382 | – | –
ACCGUGUGAGGAUAUCCGUAGCUGAGGCACCUCGCAAACAUGGAGAAGGCACAUGAGGAUCACCCAUGUGAACC [Eternabot (Original) Solution 27] (Eterna round: R97, puzzle: Exclusion 4) | 0.0471 | 0.0238 | – | –
AAACCUGAAGUCAGGAUAUGAAGUAUCACUGUACUUCAGAAGGGACUUGAGGAUCACCCAAGUAGCCGUGAGGC [jl-bmx4.4.67 ViennaUCT mod] (Eterna round: R97, puzzle: Brourd's mod of Exclusion 4) | 0.116 | 0.0288 | – | –
CUAGCGUAUGUAGGAUAUCGGACUGUUUCAGUCUGAGAAGGACAUGAGGAUCACCCAUGUAUAGCUACGUGAGUAGCUCGCUAG [JL ENG1 3.94] (Eterna round: R96, puzzle: Exclusion NG 1) | – | – | – | apparent KD of MS2 coat protein [1]: 0.0172 µM
UUUUUAUAUGAAGGAUAUACUUAACAUGAGGAUCACCCAUGUGGUGUUGUGAGUGAGUGAGUUUAGUAGAAGGUCAAUUAUCUU [JMF's solution 14] (Eterna round: R96, puzzle: Exclusion NG 2) | 0.699 | 0.373 | – | apparent KD of MS2 coat protein [1]: 0.309 µM
AAGCUGUGAGGAUAUACAUGAGGAUCACCCAUGUUAAGGAAGUCGGGAUUAAUUUGGUGUAGAAGGCGCUUAUU [JR_Ex3_Sub019] (Eterna round: R97, puzzle: Exclusion 3) | 0.0461 | 0.0486 | – | –
CCGUGGCAAGGAUAUACAUAGGAGAGGAAGGCAAGAGGAGGACAUGAGGAUCACCCAUGUAGAAGGUGCAGAUC [JR_Exclu2_Sub028] (puzzle: Exclusion 2) | – | – | 0.0717 | –
CUAAAUCAUGUAGGAUAUGCAUAGCAAAGCUAUGCAGAAGGACAUGAGGAUCACCCAUGUCAUUCCGUCUGGAGACAGACGGGA [Mat - Exclusion NG 1 - Mod of JL - D56] (Eterna round: R96, puzzle: Exclusion NG 1) | 0.142 | 0.0325 | – | apparent KD of MS2 coat protein [1]: 0.025 µM
AAUUAGCAAGCAAGAUCCCACAUGAGGAUCACCCAUGUGCUCGUCUUAUAAGGUACUGUGACGAGAGUCACGGUACC [Mat - Sensor, turn-off var - Eli Mod - D48] (Eterna round: R97, puzzle: Sensor, turn-off variant 1) | 0.0515 | 0.0505 | – | –
AUAAUGUGAGGAUAUCAGUCGUACAGCCUCGGCUGUACGACUGAGAAGGCACAUGAGGAUCACCCAUGUGGUCA [E4/5-A2] (Eterna round: R97, puzzle: Exclusion 4) | 0.156 | 0.59 | – | –
CCGCAAAUGCAGGAUAUCGUAUCGGAUACGAUACGAGAAGGGCAAACAUGAGGAUCACCCAUGUGUCCUAGCGG [Fiskers Ex 6 - 39] (puzzle: Exclusion 6) | – | – | 0.0137 | –
CAUAUGUGAGGAUAUGACAAUGGUAUCUUCGGAUACCAUUGUCAGAAGGCACAUGAGGAUCACCCAUGUGGAUC [Exclusion 4 - Mod Brourd Ex 4-3: 20 v.5] (puzzle: Exclusion 4) | – | – | 0.151 | –
ACGUGACAUGAGGAUCACCCAUGUGAGGAUAUCUGGAUAAUUUUUAUUUUAGAUAUCCAGAGAAGGCACAUGUU [Ex1-3: 1Z] (puzzle: Exclusion 1) | – | – | 0.188 | –
GCCAAUGACUGAGGAUAUGCUUAUAGACAUGAGGAUCACCCAUGUAAAUGGGACAUGUCAAACCAGCAGAAGGCAGGACCUGGC [Arused] (Eterna round: R96, puzzle: Exclusion NG 2) | 0.069 | 0.514 | – | apparent KD of MS2 coat protein [1]: 0.585 µM
CUGAACCCGGUAGGAUAUAUUGUGGGCAAGCAUGGAACGACAUGAGGAUCACCCAUGUAAUUUAGGUAGAAGGGCCAAGAGAUU [Excl-NG2-LRO10] (Eterna round: R96, puzzle: Exclusion NG 2) | 0.0742 | 0.0737 | – | apparent KD of MS2 coat protein [1]: 0.0418 µM
AGCUAGUCAGGAUAUACGAACACCUCAAAAGAGGUGAAGGGACAUGAGGAUCACCCAUGUAGAAGGGACUAGCA [Mat - Exclusion 2 - JL mod - D29] (Eterna round: R96, puzzle: Exclusion 2) | 0.167 | 0.0243 | – | apparent KD of MS2 coat protein [1]: 0.0213 µM
AGUACUAACACGAGAGUGUUAGUACUAUAAGCUUGUGUUACAUGAGGAUCACCCAUGUCCUCAUAGGCUCGUCUUAA [Mat - Sensor v3 - Turn-off var 2 - D82] (puzzle: Sensor v3, turn-off variant 2) | – | – | 0.0755 | apparent KD of MS2 coat protein [3]: 0.0758 µM; apparent KD of MS2 coat protein [4]: 0.0814 µM
ACAGUGUUAGGAUAUGUGAGAGUUAGUCUCGACUAGUCGAAGCAGAAGGAACAUGAGGAUCACCCAUGUAGAUC [EX4 #78] (Eterna round: R97, puzzle: Exclusion 4) | 0.114 | 0.0467 | – | –

Sequence | apparent KD of MS2 coat protein (input ligand: FMN 200 uM) [µM] | apparent KD of MS2 coat protein (input ligand: none) [µM] | apparent KD of MS2 coat protein [2] [µM] | other results
GGUAUACAUGAGGAUCACCCAUGUCAGGAUAUGGCGGCGUCGGCGAAAGCGGAGGCGGCCAGAAGGGACGAUAG [AK-MS2ROC-r4-exclusion1-6.1] (Eterna round: R97, puzzle: Exclusion 1) | 0.0707 | 0.124 | – | –
UAGCAUUGCCAAAGGUAGUGCAUUACAUGAGGAUCACCCAUGUAGGAUAUGGUAGGCUUUGCUUACCAGAAGGACAUGAUAAUU [Mat - Exclusion NG 3 - Mod of JL - D15] (Eterna round: R96, puzzle: Exclusion NG 3) | 0.112 | 0.0432 | – | apparent KD of MS2 coat protein [1]: 0.0296 µM
AAGAACAGAGGAUAUCGCGGGCAGCACAUGAGGAUCACCCAUGUGAUGCUCCGCGGGCCGCGAGAAGGCUGAAAUG [Dizabe] (puzzle: Exclusion 5) | – | – | 0.0095 | apparent KD of MS2 coat protein [3]: 0.0142 µM; apparent KD of MS2 coat protein [4]: 0.0129 µM
UUUAAUUUUUUUUUUUUACAAGCUUUUUGCUCGUCUUAUACAUGAGGAUCACCCAUGUGAAUGGGAAGUAAAUUAUC [JMF 51] (puzzle: Sensor v3, turn-off variant 2) | – | – | 0.183 | apparent KD of MS2 coat protein [3]: 0.103 µM; apparent KD of MS2 coat protein [4]: 0.148 µM
UAUAUAUAGUAAGGAUAUGUAUUUAUUUUACAAACAGAAGGUACUGACAUGAGGAUCACCCAUGUUUUAGUGUGGGCAUGUAGA [JMF's solution 24] (Eterna round: R96, puzzle: Exclusion NG 1) | – | – | – | apparent KD of MS2 coat protein [1]: 0.0488 µM
GGAAGGCGAGGAUAUACAAUAAAGAAAGGGAAAGACGUGAGACAUGAGGAUCACCCAUGUAGAAGGCGCGGAGA [AK-MS2ROC-r4-exclusion2-12] (Eterna round: R97, puzzle: Exclusion 2) | 0.0401 | 0.0324 | – | –
AAUAACAGAGGAUAUACUAUUUUAUGUGUUUAUUGUUUUAAACAUGAGGAUCACCCAUGUAGAAGGCUGAGUAA [JMF 31] (puzzle: Exclusion 2) | – | – | 0.0374 | –
GGAAUGUAAGGAUAUCCGAAAAGCGAGCGAAAGCGAGCAAAGGAGAAGGUACAUGAGGAUCACCCAUGUAAGGG [AK-MS2ROC-r4-exclusion4-12] (Eterna round: R97, puzzle: Exclusion 4) | 0.0589 | 0.768 | – | –
AUGCCGGUCCUCUCAGGUGUACAUGAGGAUCACCCAUGUCACGAGGAUAUCUAAGCGUGGUGGCCAGAGAAGGUGUGACAUGCU [Atibequ] (Eterna round: R96, puzzle: Exclusion NG 3) | 0.0387 | 0.0228 | – | apparent KD of MS2 coat protein [1]: 0.0172 µM
ACGCGUGGCUAGGAUAUCGAGGAAUCUAGCCAGCGAGAAGGAGCCACAUGAGGAUCACCCAUGUGGUGAUCCUC [jl-ex6-4.65 ViennaUCT mod] (Eterna round: R97, puzzle: Exclusion 6) | 0.00676 | 0.0038 | – | –
AGGGAACCCAAGGAUAUUGAGAGUUAAGCCACUUAAGAAGGUGGUACAUGAGGAUCACCCAUGUCCCUUGCAGA [Eternabot (L1) Solution 6] (Eterna round: R97, puzzle: Exclusion 6) | 0.0383 | 0.0416 | – | –
ACGCAACAUGAGGAUCACCCAUGUCAGGAUAUCCGGCGAAAACCCAAGAAGGGAAACCGGAGAAGGGACAAAGG [ChP 04-04-2015 #1] (puzzle: Exclusion 1) | – | – | 0.181 | apparent KD of MS2 coat protein [3]: 0.134 µM; apparent KD of MS2 coat protein [4]: 0.189 µM
GGUUAUUGCAAGGAUAUGCUUAUUUGAGAAAUUGCAGAAGGUGCAACAUGAGGAUCACCCAUGUUGGAUGGGUU [JR_E6_Sub016] (puzzle: Exclusion 6) | – | – | 0.0607 | –
UACAUGAGGAUCACCCAUGUUUUGUCGUGUAUGGUAUUUAUCUAGGAUAUCGUGUUAUUUAACCACGAGAAGGAGAGUAUCAAU [MOD3 Solution 21 by JMF] (Eterna round: R96, puzzle: Exclusion NG 3) | – | – | – | apparent KD of MS2 coat protein [1]: 0.0215 µM
CCUCUACAUGAGGAUCACCCAUGUGAGGAUAUAAGAUUGCGGAUUCCGCACUACGGUCUUAGAAGGCGCGUGGA [Texebibia] (puzzle: Exclusion 1) | – | – | 0.0172 | –
UUUUUCGAACAAGCUUCGUACAUGAGGAUCACCCAUGUCGGUAGAUUUGAGUAGGUUUGGAUGGAAGUUCGUCUUAU [JR_SV3TOV1_Sub086] (puzzle: Sensor v3, turn-off variant 1) | – | – | 0.0659 | apparent KD of MS2 coat protein [3]: 0.0282 µM; apparent KD of MS2 coat protein [4]: 0.0329 µM
AAACCCUCCGUAAGGAUAUGCGCAGGUAAACCGCUGUAGAAGGUACAUGAGGAUCACCCAUGUUGGACCGUGGA [Eternabot (Original) Solution 35] (Eterna round: R97, puzzle: Brourd's mod of Exclusion 4) | 0.036 | 0.029 | – | –
